In US20090291081A1 (AbbVie / Abbott, published 2009) one finds IC50 data, which are given here for 52 molecules.

Residue numbers refer to the chain shown, from its start.

The target of this test is T1, human IL-1α (human, UniProt P01583 113-271).
T1 construct: also called IL-1alpha; hIL-1α
T1 sequence (looked up): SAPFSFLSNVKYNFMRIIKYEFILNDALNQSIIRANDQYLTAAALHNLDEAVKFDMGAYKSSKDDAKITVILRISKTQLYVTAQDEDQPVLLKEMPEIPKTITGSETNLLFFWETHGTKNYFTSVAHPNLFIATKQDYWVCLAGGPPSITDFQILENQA
Put plainly: Table 62 IC50; RBA presumed.

B1: ABT1-157 (other)
VL: DIQMTQSPSSLSASVGDRVTITCRASQSISSYLNWYQQKPGKAPKLLIGGVSGLQSGVPSRFSGSGSGTDFTLTISSLQPEDFATYYCMQWSRPPRTFGQGTKVEIKR
notes: VK dAb
By IC50 is commonly meant the concentration needed to halve the response being measured. B1: the 50% inhibitory concentration (IC50) turned out to be 300 nM. This lies in the sub-micromolar range.

B2: ABT1-167 (other)
VL: B1 VL with V51L, S92W, P94Y, R96P
notes: VK dAb
For B2, the IC50 is above 1000 nM.

B3: ABT1-166 (other)
VL: B1 VL with V51L, M89G, S92A, P94A, R96M
notes: VK dAb
Molecule B3 registered a half-maximal inhibitory concentration (IC50) above 1000 nM.

B4: ABT1-171 (other)
VL: B1 VL with V51R, S92F
notes: VK dAb
The molecule B4 yielded an IC50 above 1000 nM.

B5: ABT1-168 (other)
VL: B1 VL with V51L, M89L, S92F, R93S, P94E, R96A
notes: VK dAb
B5: the IC50 was above 1000 nM.

B6: ABT1-170 (other)
VL: B1 VL with V51R, M89K, S92Y, P94Y, R96S
notes: VK dAb
As for B6, the concentration for half-maximal inhibition (IC50) was above 1000 nM.

B7: ABT1-95-98 (other)
VL: DIQMTQSPSSLSASVGDRVTITCRASQPIVRNLRWYQQKPGKAPKLLIYSSSALEPGVPSRFSGSGSGTDFTLTISSLQPEDFATYHCQQGYRWPVTFGQGTKVEIKR
notes: VK dAb
B7 came in with an IC50 of 0.8 nM. This lies in the sub-nanomolar range.

B8: ABT1-95-111 (other)
VL: B7 VL with A53Y, P56D
notes: VK dAb
B8 came in with an IC50 below 0.1 nM.

B9: ABT1-95-146 (other)
VL: B7 VL with P28N, A53Y
notes: VK dAb
Turning to B9, the IC50 came to 0.8 nM.

B10: ABT1-95-142 (other)
VL: B7 VL with V30T, A53Y
notes: VK dAb
In the case of B10, the 50% inhibitory concentration (IC50) was determined as 0.5 nM.

B11: ABT1-95-112 (other)
VL: B7 VL with A53Y, P56N
notes: VK dAb
Regarding B11, the 50% inhibitory concentration (IC50) came out at 0.1 nM.

B12: ABT1-95-156 (other)
VL: B7 VL with Y49A, A53Y, Q89L
notes: VK dAb
B12 had a 50% inhibitory concentration (IC50) of 10 nM.

B13: ABT1-95-108 (other)
VL: B7 VL with A53Y, P56E
notes: VK dAb
Consider B13, for which the half-maximal inhibitory concentration (IC50) was 0.5 nM.

B14: ABT1-141-10 (other)
VL: DIQMTQSPSSLSASVGDRVTITCRASQWIQKQLAWYQQKPGKAPKLLIYSSSYLQSGVPSRFSGSGSGTDFTLTISSLQPEDFATYYCQQSLRVPFTFGQGTKVEIKR
notes: VK dAb
As to B14, the IC50 was 30 nM. Compared with the last molecule, the IC50 is about 60-fold higher.

B15: ABT1-95-110 (other)
VL: B7 VL with A53Y, P56A
notes: VK dAb
Take B15: the half-maximal inhibitory concentration (IC50) was found to be 0.1 nM.

B16: ABT1-95-153 (other)
VL: B7 VL with V30I, A53Y, D70G
notes: VK dAb
Consider B16, for which the IC50 turned out to be 0.5 nM.

B17: ABT1-141-54 (other)
VL: B14 VL with Y53H, S91H, F96M
notes: VK dAb
In the case of B17, 3 nM corresponded to half-maximal inhibition (IC50).

B18: ABT1-95-154 (other)
VL: B7 VL with Y49S, A53Y
notes: VK dAb
In the case of B18, the half-maximal inhibitory concentration (IC50) is above 10 nM.

B19: ABT1-95-114 (other)
VL: B7 VL with A53Y, P56V
notes: VK dAb
B19 gave a concentration for half-maximal inhibition (IC50) of 0.2 nM.

B20: ABT1-95-140 (other)
VL: B7 VL with P28G, A53Y
notes: VK dAb
Molecule B20 came in with an IC50 of 0.2 nM.

B21: ABT1-95-155 (other)
VL: B7 VL with Y49T, A53Y, F83S
notes: VK dAb
Molecule B21 yielded a concentration for half-maximal inhibition (IC50) of 10 nM. Compared with the last molecule, the IC50 is about 50-fold higher.

B22: ABT1-95-124 (other)
VL: B7 VL with A53Y, R93M
notes: VK dAb
B22 showed an IC50 of 0.2 nM.

B23: ABT1-95-150 (other)
VL: B7 VL with P28H, A53Y
notes: VK dAb
For the molecule B23, the concentration for half-maximal inhibition (IC50) was 0.2 nM.

B24: ABT1-141-27 (other)
VL: B14 VL with S91G, V94Q, F96M
notes: VK dAb
B24 gave an IC50 of 20 nM.

B25: ABT1-95-158 (other)
VL: B7 VL with Y49F, A53Y
notes: VK dAb
Consider B25, for which the IC50 stood at 0.5 nM.

B26: ABT1-95-159 (other)
VL: B7 VL with V30A, A53Y, G91V
notes: VK dAb
Molecule B26 returned an IC50 of 0.1 nM.

B27: ABT1-95-147 (other)
VL: B7 VL with R24W, P28G, A53Y
notes: VK dAb
Regarding B27, it took 0.2 nM to reach half-maximal inhibition (IC50). Compared with the last molecule, the IC50 is about 2-fold higher.

B28: ABT1-95-125 (other)
VL: B7 VL with A53Y, V96L
notes: VK dAb
Molecule B28 had a concentration for half-maximal inhibition (IC50) of 0.2 nM. This lies in the sub-nanomolar range.

B29: ABT1-154 (other)
VL: DIQMTQSPSSLSASVGDRVTITCRASTEIVRNLRWYQQKPGKAPKLLISGVSGLQSGVPSRFSGSGSGTDFTLTISSLQPEDFATYYCVQGYSWPVTFGQGTKVEIKR
notes: VK dAb
For B29, the half-maximal inhibitory concentration (IC50) is above 1000 nM.

B30: ABT1-160 (other)
VL: B29 VL with K45N, S49W, V51G, G53T, W94L
notes: VK dAb
B30: the midpoint of inhibition, the IC50, lay at 300 nM.

B31: ABT1-95-141 (other)
VL: B7 VL with V30L, A53Y
notes: VK dAb
B31 yielded a half-maximal inhibitory concentration (IC50) of 1 nM. Against the preceding molecule, the IC50 is about 300-fold lower.

B32: ABT1-95-151 (other)
VL: B7 VL with S26G, A53Y, G99D
notes: VK dAb
In the case of B32, the IC50 is 0.2 nM.

B33: ABT1-95-126 (other)
VL: B7 VL with A53Y, V96S
notes: VK dAb
The molecule B33 showed an IC50 of 0.8 nM.

B34: ABT1-95-123 (other)
VL: B7 VL with A53Y, R93A
notes: VK dAb
As to B34, the concentration for half-maximal inhibition (IC50) was 0.1 nM.

B35: ABT1-131 (other)
VL: DIQMTQSPSSLSASVGDRVTITCRASQRINGNLRWYQQKPGKAPKLLIYSVSQLQSGVPSRFSGSGSGTDFTLTISSLQPEDFATYYCQQGYDWPPTFGQGTKVETKR
notes: VK dAb
B35 yielded an IC50 of 80 nM. This IC50 is about 800-fold higher than that of the molecule before.

B36: ABT1-95-144 (other)
VL: B7 VL with A53Y, E55S
notes: VK dAb
As for B36, the IC50 came to 0.5 nM.

B37: ABT1-95-145 (other)
VL: B7 VL with R18H, A53Y, E55V
notes: VK dAb
The molecule B37 came in with a 50% inhibitory concentration (IC50) of 0.8 nM. This IC50 lies about 1.6-fold higher than the previous one.

B38: ABT1-95-127 (other)
VL: B7 VL with A53Y, S76G, V96I
notes: VK dAb
B38 returned an IC50 of 0.1 nM.

B39: ABT1-141-35 (other)
VL: B14 VL with S51A, Y53W, S91H, F96M
notes: VK dAb
Molecule B39 displayed an IC50 of 10 nM.

B40: ABT1-95-101 (other)
VL: B7 VL with I48V, A53L
notes: VK dAb
The molecule B40 returned a half-maximal inhibitory concentration (IC50) of 0.5 nM.

B41: ABT1-95-143 (other)
VL: B7 VL with Y49T, A53Y
notes: VK dAb
In turn, B41 came in with a 50% inhibitory concentration (IC50) of 10 nM.

B42: ABT1-95-128 (other)
VL: B7 VL with A53Y, V96G
notes: VK dAb
B42 came in with an IC50 above 1 nM.

B43: ABT1-95-129 (other)
VL: B7 VL with A53Y, Q79H, F83L
notes: VK dAb
As to B43, the IC50 was above 10 nM.

B44: ABT1-95-106 (other)
VL: B7 VL with A53Y, P56R, T97A
notes: VK dAb
In turn, B44 returned an IC50 of 0.1 nM.

B45: ABT1-95-152 (other)
VL: B7 VL with S26G, V30P, A53Y
notes: VK dAb
As to B45, half-maximal inhibition (IC50) was put at 0.8 nM.

B46: ABT1-95-120 (other)
VL: B7 VL with V30A, A53Y, G91V
notes: VK dAb
With B46, half-maximal inhibition (IC50) required 0.1 nM.

B47: ABT1-95-157 (other)
VL: B7 VL with Y49T, A53Y, T69A
notes: VK dAb
As for B47, the 50% inhibitory concentration (IC50) is 10 nM.

B48: ABT1-95-130 (other)
VL: B7 VL with A53Y, H87Y, R93L
notes: VK dAb
In turn, B48 had an IC50 above 1 nM.

B49: ABT1-150 (other)
VL: DIQMTQSPSSLSASVGDRVTITCRASQSISSYLNWYQQKPGKAPKLLIGGVSGLQSGVPSRFSGSGSGTDFTLTISSLQPEDFATYYCMQWWRWPSTFGQGTKVEIKRAAAEQKLISEED
notes: VK dAb
As for B49, inhibition was half-maximal at 150 nM (IC50).

B50: ABT1-151 (other)
VL: B49 VL with V51R, M89G, W92Y, W94H, S96A
notes: VK dAb
In turn, B50 returned a half-inhibitory concentration (IC50) of 200 nM.

B51: ABT1-152 (other)
VL: B49 VL with V51R, S76G, W92Y, W94A
notes: VK dAb
B51 returned a half-maximal inhibitory concentration (IC50) of 300 nM. Compared with the last molecule, the IC50 is about 1.5-fold higher.

B52: ABT1-137 (other)
VH: EVQLLESGGGLVQPGGSLRLSCAASGFTFERYWMAWVRQAPGKGLEWVSNINLTGSATYYADSVKGRFTISRDNSKNTLYLQMNSLRAEDTAVYYCAKGAFQFDYWGQGTLVTVSS
notes: VH dAb
B52 displayed an IC50 of 200 nM.
